Data published in paper PMC9157124 (Plant Physiology, 2022).

Target: N-terminal FLAG-tagged D1 (FLAG-D1) (Synechocystis sp. PCC 6803, UniProt P16033 1-344)
Assay: co-IP

stoichiometry N: ~1
B1: Ycf48 assembly factor (natural protein, Synechocystis sp. PCC 6803 (endogenous), UniProt P73069 29-342, looked up)
chain: CSHVPDLAFNPWQEIALETDSTFADIAFTEDPNHGWLVGTKETIFETTDGGDTWEQKLIDLGEEKASFSAVSFSGNEGWITGKPSILLHTTDGGQTWARIPLSEKLPGAPYSIIALGPQTAEMITDLGAIYKTTNGGKNWKALVEGAVGVARTIQRSTDGRYVAVSARGNFYSTWAPGQTEWTPHNRNSSRRLQTMGYGKDGQLWLLARGGQLQFSTDPDAEEWSDVIAPQDKGSWGLLDLSFRTPEEVWVAGASGNLLMSQDGGQTWAKDTGVEDIPANLYRVVFLSPEKGFVLGQDGILLKYNPSTEVAMVP
